Our source for the Kd values is patent US10093706.

Series [1] has as its target hnRNP-E1 (PCBP1) wild-type (Homo sapiens) (UniProt Q15365). The note with it: Scatchard.
The target of series [2] is hnRNP-E1(C293S) (Homo sapiens) (UniProt Q15365). The settings on record: no L-homocysteine; Scatchard.
In series [3] the target is hnRNP-E1(G292A) G292A (Homo sapiens) (UniProt Q15365). The settings on record: no L-homocysteine; Scatchard.

Like-named read-outs stand apart in the source and are kept apart here.

As a reminder, the Kd is the free concentration of one partner at which half of the binding sites on the other are occupied at equilibrium, for simple one-to-one binding. High values mean weaker binding, low ones tighter binding.

hnRNP-E1 (PCBP1) wild-type (Homo sapiens), sequence (Q15365 whole entry A205V): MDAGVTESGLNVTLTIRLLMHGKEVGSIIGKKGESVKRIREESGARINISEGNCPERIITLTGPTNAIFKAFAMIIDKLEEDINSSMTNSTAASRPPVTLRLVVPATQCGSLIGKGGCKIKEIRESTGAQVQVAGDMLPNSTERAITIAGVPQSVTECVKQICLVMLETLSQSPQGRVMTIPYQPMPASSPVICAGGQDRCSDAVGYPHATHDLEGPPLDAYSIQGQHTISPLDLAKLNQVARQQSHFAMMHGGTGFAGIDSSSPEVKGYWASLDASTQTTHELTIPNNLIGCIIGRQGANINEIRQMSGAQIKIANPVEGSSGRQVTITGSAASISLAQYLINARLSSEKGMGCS
hnRNP-E1(G292A) G292A (Homo sapiens), sequence (Q15365 whole entry A205V/G292A): as the sequence (Q15365 whole entry A205V) above, with G292A counted along it
hnRNP-E1(C293S) (Homo sapiens), sequence (Q15365 whole entry A205V/C293S): as the sequence (Q15365 whole entry A205V) above, with C293S counted along it

“18-nt folate receptor-alpha mRNA cis-element”: the Kd in series [1] (10 uM L-homocysteine) amounted to 0.89 nM; in series [1] (50 uM L-homocysteine), 0.47 nM; in series [1] (no L-homocysteine) it was 1.47 nM; in series [2], 0.27 nM; in series [3], 1.57 nM.
